From patent US20210139579A1 (NBE THERAPEUTICS, published 2021)

How the values were obtained:
[1] = molecular target: T1, Recombinant human twin strep-tagged ROR2 extracellular domain (human, UniProt Q01974 34-403); assay: ELISA on coated twin strep-tagged hROR2
T1 construct: extracellular domain; also called strep-tagged human ROR2; recombinant, purified hROR2
Method: (§1) Each well of a 96-well plate was coated with 100 μL of 2 μg/mL strep-tagged human ROR1 or ROR2 (from Example 5) in 0.1 M bicarbonate coating buffer (pH 9.6), and incubated for 12 h at 4° C.

[2] = molecular target: T2, StrepII-tagged human ROR1-extracellular domain (human, UniProt Q01973 30-406); assay: ELISA on coated strep-tagged hROR1, detected with anti-human Fc-gamma HRP
T2 construct: also called strep-tagged human ROR1; recombinant, purified hROR1
T2 sequence (Q01973 other isoform, or with tags, fused parts or gaps): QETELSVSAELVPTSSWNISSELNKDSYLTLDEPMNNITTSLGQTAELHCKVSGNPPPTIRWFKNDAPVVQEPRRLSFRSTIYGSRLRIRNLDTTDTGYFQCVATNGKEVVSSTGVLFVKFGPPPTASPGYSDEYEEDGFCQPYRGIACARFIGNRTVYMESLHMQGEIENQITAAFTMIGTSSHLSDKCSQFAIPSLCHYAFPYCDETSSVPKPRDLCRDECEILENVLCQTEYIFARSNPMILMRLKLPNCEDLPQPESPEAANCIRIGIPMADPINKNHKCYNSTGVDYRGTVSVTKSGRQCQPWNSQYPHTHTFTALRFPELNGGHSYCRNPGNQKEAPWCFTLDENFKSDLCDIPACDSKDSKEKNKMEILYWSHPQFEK
Method: as §1

[3] = molecular target: T3, human ROR1 (hROR1) on the cell surface (human, UniProt Q01973 30-937); assay: flow cytometry on human cancer cell lines, 2A2 at 2 µg/mL
T3 construct: whole, on cells; Endogenous on the human lines 697, MDA-MB-468, HS-578T, A549 and HT-29; ectopically expressed on murine EMT-6 cells (clone 14); also called full-length ROR1 (NP_005003.2)
T3 sequence (Q01973 30-937): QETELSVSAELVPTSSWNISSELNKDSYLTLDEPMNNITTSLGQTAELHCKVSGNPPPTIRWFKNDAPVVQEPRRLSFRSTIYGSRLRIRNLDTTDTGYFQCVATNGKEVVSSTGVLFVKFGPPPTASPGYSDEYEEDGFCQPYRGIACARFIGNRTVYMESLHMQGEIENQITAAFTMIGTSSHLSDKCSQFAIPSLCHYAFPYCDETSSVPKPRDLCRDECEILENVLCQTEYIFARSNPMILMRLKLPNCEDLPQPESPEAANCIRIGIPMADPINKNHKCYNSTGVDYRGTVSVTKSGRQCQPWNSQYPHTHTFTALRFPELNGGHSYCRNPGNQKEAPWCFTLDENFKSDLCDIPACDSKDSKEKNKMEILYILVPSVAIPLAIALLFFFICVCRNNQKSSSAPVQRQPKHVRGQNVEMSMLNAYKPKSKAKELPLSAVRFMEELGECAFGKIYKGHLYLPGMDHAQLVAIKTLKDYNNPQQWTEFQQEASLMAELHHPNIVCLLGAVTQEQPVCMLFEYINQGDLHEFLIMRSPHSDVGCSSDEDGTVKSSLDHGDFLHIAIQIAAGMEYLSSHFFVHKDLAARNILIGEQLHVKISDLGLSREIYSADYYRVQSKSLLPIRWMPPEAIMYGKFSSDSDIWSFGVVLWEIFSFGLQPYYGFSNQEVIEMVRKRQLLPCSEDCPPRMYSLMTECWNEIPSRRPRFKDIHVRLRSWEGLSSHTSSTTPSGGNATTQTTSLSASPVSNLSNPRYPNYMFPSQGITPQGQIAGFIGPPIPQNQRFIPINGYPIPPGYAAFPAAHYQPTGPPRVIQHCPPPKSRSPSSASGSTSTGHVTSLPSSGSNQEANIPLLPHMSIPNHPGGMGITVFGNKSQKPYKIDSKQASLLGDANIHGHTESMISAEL

T1 sequence (Q01974 other isoform, or with tags, fused parts or gaps): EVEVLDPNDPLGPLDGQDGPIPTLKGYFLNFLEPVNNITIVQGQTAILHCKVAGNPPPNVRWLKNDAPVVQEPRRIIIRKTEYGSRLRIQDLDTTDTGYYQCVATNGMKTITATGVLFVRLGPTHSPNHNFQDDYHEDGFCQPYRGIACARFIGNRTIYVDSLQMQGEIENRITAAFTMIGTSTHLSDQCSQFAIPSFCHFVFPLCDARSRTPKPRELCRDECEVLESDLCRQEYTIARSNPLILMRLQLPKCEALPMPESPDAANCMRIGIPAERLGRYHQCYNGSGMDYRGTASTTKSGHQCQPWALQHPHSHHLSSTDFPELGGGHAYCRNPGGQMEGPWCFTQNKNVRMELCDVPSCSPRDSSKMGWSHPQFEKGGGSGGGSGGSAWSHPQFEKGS

Binder	binding result [1]	binding result [2]	binding result [3]
ERR1-301 (mAb027) (antibody, human IgG1, V domains shown, Chimeric rabbit/human IgG1, lambda; not shown: Strep tag) VH: QEQLEESGGGLVTPGGSLTLTCTASGFTISTYHMSWVRQAPGKGLEWIGSIYAGSGSTYYASWVNGRFTISSNTTQNTVSLQMNSLTVADTATYFCARDHPSYGMDLWGPGTLVTVSS VL: SYELTQLPSVSVSLGQTARITCGGNSIGSKAVNWYQQKPGLAPGLLIYDDDERPSGVPDRFSASNSGDTATLTISGAQAEDEADYYCQLWDSSAVAYVFGGGTQLTVTG	no binding	binds	
ERR1-Top43 (mAb036) (antibody, human IgG1, V domains shown, Chimeric rabbit/human IgG1, lambda; not shown: Strep tag) VH: QSLEESGGRLVTPGTPLTLTCTVSGFSLSSYWMSWVRQAPGKGLEWIGAIYGSGNTYYASWAKGRFTISKTSTTVDLKITSPTTEDTATYFCARDVHSTATDLWGPGTLVTISS VL: SYELTQLPSVSVSLGQTARITCGGNNIGSKAVNWYQQKPGLAPGLLIYNDDERPSGVPDRFSGSNSGDTATLTISGAQAGDEADYYCQLWDSSAGAYVFGGGTQLTVTG	no binding	binds	
ERR1-403 (mAb035) (antibody, human IgG1, V domains shown, Chimeric rabbit/human IgG1, lambda; not shown: Strep tag) VH: QEQLKESGRGLVQPGGSLKLSCKASGFDFSGWYMTWVRQAPGKGLEWIGTIGTTKGRTYYASWVNGRFTISSDNAQNTVDLQMNSLTAADRATYFCVRGSDYFDLWGPGTLVTISS VL: SYELTQLPSVSVSLGQTARITCGGNSIGSKAVNWYQQKPGLAPGLLIYDDDERPSGVPARFSGSNSGDTATLTISGAQAGDEADYYCQLWDSSAGAYVFGGGTQLTVTG	no binding	binds	
XBR1-402 (mAb031) (antibody, human IgG1, V domains shown, Chimeric rabbit/human IgG1, lambda; not shown: Strep tag) VH: QEQQKESGGGLFKPTDTLTLTCTASGFDISSYYMSWVRQAPGNGLEWIGAIGISGNAYYASWAKSRSTITRNTNLNTVTLKMTSLTAADTATYFCARDHPTYGMDLWGPGTLVTVSS VL: SYELTQLPSVSVSLGQTARITCEGNNIGSKAVHWYQQKPGLAPGLLIYDDDERPSGVPDRFSGSNSGDTATLTISGAQAGDEADYYCQVWDSSAYVFGGGTQLTVTG	no binding	binds	
ERR1-306 (mAb033) (antibody, human IgG1, V domains shown, Chimeric rabbit/human IgG1, lambda; not shown: Strep tag) VH: QEQLKESGGGLVQPGGSLKLSCKASGFDLSNYGVSWVRQAPGKGLEWIGYIDPTFDYTYYASWVNGRFSISRENTQNTVSLQINSLTPADTATYFCARWVYGVDDYGDGNWLDLWGQGTLVTISS VL: QFVLTQSPSVSAALGASAKLTCTLSSAHKTYTIDWYQQQQGEAPRYLMELKSDGSYTKGTGVPDRFSGSSSGADRYLIIPSVQADDEADYYCGTDYSGGYVFGGGTQLTVTG	no binding		
2A2 (mAb066) (antibody, human IgG1, IgG with human IgG1 and kappa constant regions; also called anti-human ROR1 antibody 2A2; not shown: Strep tag) heavy: not shown light: DIVMTQSQKIMSTTVGDRVSITCKASQNVDAAVAWYQQKPGQSPKLLIYSASNRYTGVPDRFTGSGSGTDFTLTISNMQSEDLADYFCQQYDIYPYTFGGGTKLEIKRTVAAPSVFIFPPSDEQLKSGTASVVCLLNNFYPREAKVQWKVDNALQSGNSQESVTEQDSKDSTYSLSSTLTLSKADYEKHKVYACEVTHQGLSSPVTKSFNRGECGGGGGSLPETG			binds
ERR1-324 (mAb034) (antibody, human IgG1, Chimeric rabbit/human IgG1, kappa; not shown: Strep tag) heavy: not shown light: ELVLTQTPSPVSAAVGGTVTINCQASQSVYGNNELAWYQQKPGQPPKLLIYRASILTSGVPSRFKGSGSGTQFTLTISNVQREDAATYYCLGGYVSQSYRAAFGGGTELEILRTVAAPSVFIFPPSDEQLKSGTASVVCLLNNFYPREAKVQWKVDNALQSGNSQESVTEQDSKDSTYSLSSTLTLSKADYEKHKVYACEVTHQGLSSPVTKSFNRGECGGGGGSLPETG	no binding	binds	
